Data on 1 molecule can be found in patent US20220213176A1 (SHANGHAITECH UNIVERSITY, published 2022).

This experiment deals with SARS-CoV-2 spike receptor binding domain, wild-type (S-RBD) (SARS-CoV-2, UniProt P0DTC2 319-541). In words: BLI (Octet RED96), biotin S-RBD on SA sensor, 1:1 fit.

B1: S-E6 trimer (T4F) (other)
heavy: QVTLRESGPGLVKPSETLSLTCAVSGGSLSSVNYYWSWIRQHPGKGLEWIGYIYYSGSTNYNPSLKSRVTMSLDTSKNQFSLKLSSVTAADTAVYYCATPGAIMGALHIWGQGTLVTVSSASTKGPSVFPLAPSSKSTSGGTAALGCLVKDYFPEPVTVSWNSGALTSGVHTFPAVLQSSGLYSLSSVVTVPSSSLGTQTYICNVNHKPSNTKVDKKVEPPKSGGGGSGGGGSGGGGSPGSGYIPEAPRDGQAYVRKDGEWVLLSTFLGHHHHHH
light: QAVLTQPSSASSTPGQRVIISCSGSSSNIGSNTVSWYQQVPGAAPKLLIYFDYRRPSGVPDRFSGTRSGTSASLGISGLQSEDEADYYCAAWDDSLSAWVFGRGTKLTVLGGLGGLVDYKGQPKAAPSVTLFPPSSEELQANKATLVCLISDFYPGAVTVAWKADSSPVKAGVETTTPSKQSNNKYAASSYLSLTPEQWKSHRSYSCQVTHEGSTVEKTVAPTECS
notes: also called trimer S-E6; trimeric S-E6
Turning to B1, the Kd is 0.0101 nM.
